Results: PMC3357956 (Nature structural & molecular biology, 2011)

Target: the molecule itself
Experiment: thioflavin T fluorescence

QGGFGNSRGGGAGLGNNQGSNMGGGMNFGAFSINPAMMAAAQAALQ (peptide, UniProt Q13148 286-331, looked up) [wild-type TDP46mer (synthetic TDP-43 peptide Gln286-Gln331)]: binds.
